Measured values reported in patent US20090191117A1.

Molecular target: αvβ3 and αvβ5 integrins on human umbilical vein endothelial cells (human), P06756
Assay: cell-based or functional assay

- HUVEC adhesion to fibrin, percent of adhesion without antibody, antibody at 10 µg/ml: 45.1%
- HUVEC adhesion to fibrinogen, percent of adhesion without antibody, antibody at 10 µg/ml: 34.5%
- HUVEC adhesion to gelatin, percent of adhesion without antibody, antibody at 10 µg/ml: 54.8%
- HUVEC adhesion to vitronectin, percent of adhesion without antibody, antibody at 10 µg/ml: 3.3%
B1: CNTO 95 (antibody, V domains shown)
VH: QVQLVESGGGVVQPGRSRRLSCAASGFTFSRYTMHWVRQAPGKGLEWVAVISFDGSNKYYVDSVKGRFTISRDNSENTLYLQVNILRAEDTAVYYCAREARGSYAFDIWGQGTMVTVSS
VL: EIVLTQSPATLSLSPGERATLSCRASQSVSSYLAWYQQKPGQAPRLLIYDASNRATGIPARFSGSGSGTDFTLTISSLEPEDFAVYYCQQRSNWPPFTFGPGTKVDIK
